Results on one molecule are retold here after US20240368574A1 (BELLICUM PHARMACEUTICALS, published 2024).

For the test, the target named is four tandem FKBP12 domains expressed from pBP0722 pSH1-Fpk-Fpk'.LS.Fpk''.Fpk'''.LS.HA. Briefly: cell-based or functional assay.

B1: FRBL-ΔCaspase-9 expressed from pBP0463 pSH1-FRBL.dCaspase9.T2A (other)
chain: EMWHEGLEEASRLYFGERNVKGMFEVLEPLHAMMERGPQTLKETSFNQAYGRDLMEAQEWCRKYMKSGNVKDLLQAWDLYYHVFRRISKSGGGSGVDDGFGDVGALESLRGNADLAYILSMEPCGHCLIINNVNFCRESGLRTRTGSNIDCEKLRRRFSSLHFMVEVKGDLTAKKMVLALLELARQDHGALDCCVVVILSHGCQASHLQFPGAVYGTDGCPVSVEKIVNIFNGTSCPSLGGKPKLFFIQACGGEQKDHGFEVASTSPEDESPGSNPEPDATPFQEGLRTFDQLDAISSLPTPSDIFVSYSTFPGFVSWRDPKSGSWYVETLDDIFEQWAHSEDLQSLLLRVANAVSVKGIYKQMPGCFNFLRKKLFFKTSASRAEGRGSLLTCGDVEENPGP
With B1, the “IC50 of rapamycin or C7-isopropoxy-rapamycin (the small-molecule heterodimerizer, not of a protein) for loss of SRα-SEAP reporter activity in transfected 293 cells” value is ~3 nM.
